We go through two substances from patent US20060099701.

Data set [1] has as its system cyclin A (immunoprecipitated).
Data set [2] relates to ACDK proteins (immunoprecipitated from brain tissue extracts with the anti-ACDK-specific antibody).

As for CDK1 (immunoprecipitated, native), the “pRB phosphorylation (kinase reaction, Western blot with pRB phosphospecific antibodies)” value in data set [1] is on record as “Lane B, pRB phosphorylated by cyclin A-CDK1 (positive control)”; in data set [2], “by ACDK-CDK1 complex at serine 249 and/or threonine 252”.

Turning to CDK2 (immunoprecipitated, native), the “pRB phosphorylation (kinase reaction, Western blot with pRB phosphospecific antibodies)” value is listed as “Lane B, pRB phosphorylated by cyclin A-CDK2 (positive control)” in data set [1] and “pRB was phosphorylated by ACDK-CDK2 complex at threonine 821” in data set [2]. Also, the “observed phosphorylation efficiency of pRB, against the cyclin A-CDK2 complex” value in data set [2] is recorded as “ACDK-CDK2 activity was approximately 2-fold higher than that of cyclin A-CDK2 complex”.
